The values that follow come from article PMC2121028.

The assay concerns the target SNF1/GAL4(1-147). In words: two-hybrid. The note with it: scale: units.

Chain of SNF4/GAL4(768-881) (natural protein) (P12904 whole entry, the tested form may be a part): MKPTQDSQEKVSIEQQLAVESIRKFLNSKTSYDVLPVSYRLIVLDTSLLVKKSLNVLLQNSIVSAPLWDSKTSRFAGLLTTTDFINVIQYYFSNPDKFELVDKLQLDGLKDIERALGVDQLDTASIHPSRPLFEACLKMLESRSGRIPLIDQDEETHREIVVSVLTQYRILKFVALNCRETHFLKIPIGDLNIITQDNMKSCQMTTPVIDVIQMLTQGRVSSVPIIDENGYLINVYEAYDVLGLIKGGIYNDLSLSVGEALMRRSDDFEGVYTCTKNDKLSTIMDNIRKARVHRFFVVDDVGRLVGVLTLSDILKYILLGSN
Chain of SNF1/GAL4(1-147) (P06782 whole entry, the tested form may be a part): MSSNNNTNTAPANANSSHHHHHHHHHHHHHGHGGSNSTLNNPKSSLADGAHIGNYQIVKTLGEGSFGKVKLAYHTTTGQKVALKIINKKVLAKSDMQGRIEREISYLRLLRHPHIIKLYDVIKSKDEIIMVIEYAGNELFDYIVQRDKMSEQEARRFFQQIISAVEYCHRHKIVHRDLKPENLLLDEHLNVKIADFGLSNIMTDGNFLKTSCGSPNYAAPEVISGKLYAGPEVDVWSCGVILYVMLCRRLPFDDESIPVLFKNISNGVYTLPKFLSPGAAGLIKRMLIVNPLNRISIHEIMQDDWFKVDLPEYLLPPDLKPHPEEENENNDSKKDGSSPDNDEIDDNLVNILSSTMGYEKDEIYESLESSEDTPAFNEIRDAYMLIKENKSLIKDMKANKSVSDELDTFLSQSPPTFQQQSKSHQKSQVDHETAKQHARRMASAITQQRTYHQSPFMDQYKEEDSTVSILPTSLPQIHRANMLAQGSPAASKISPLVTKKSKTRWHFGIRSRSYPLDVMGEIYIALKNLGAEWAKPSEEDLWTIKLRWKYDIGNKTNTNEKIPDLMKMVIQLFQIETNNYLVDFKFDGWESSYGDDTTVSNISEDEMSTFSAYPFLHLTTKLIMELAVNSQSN

In turn, SNF4/GAL4(768-881) (natural protein) returned a beta-galactosidase activity of 500.
